Reference: the supplement of paper PMC10065799, “High-throughput profiling of sequence recognition by tyrosine kinases and SH2 domains using bacterial peptide display” (eLife, 2023)

Assays:
AncSZ = test: phosphorylation enrichment, bacterial display (enrichment ratio); higher = better substrate or ligand; peptides without Tyr show the background
EPHB2 = EPHB2 (UniProt P29323); test: as above
FGFR1 = FGFR1 (UniProt P11362); test: as above
c-Src = test: as above
FGFR3 = FGFR3 (UniProt P22607); test: as above
Chain of FGFR3 (P22607 whole entry, looked up): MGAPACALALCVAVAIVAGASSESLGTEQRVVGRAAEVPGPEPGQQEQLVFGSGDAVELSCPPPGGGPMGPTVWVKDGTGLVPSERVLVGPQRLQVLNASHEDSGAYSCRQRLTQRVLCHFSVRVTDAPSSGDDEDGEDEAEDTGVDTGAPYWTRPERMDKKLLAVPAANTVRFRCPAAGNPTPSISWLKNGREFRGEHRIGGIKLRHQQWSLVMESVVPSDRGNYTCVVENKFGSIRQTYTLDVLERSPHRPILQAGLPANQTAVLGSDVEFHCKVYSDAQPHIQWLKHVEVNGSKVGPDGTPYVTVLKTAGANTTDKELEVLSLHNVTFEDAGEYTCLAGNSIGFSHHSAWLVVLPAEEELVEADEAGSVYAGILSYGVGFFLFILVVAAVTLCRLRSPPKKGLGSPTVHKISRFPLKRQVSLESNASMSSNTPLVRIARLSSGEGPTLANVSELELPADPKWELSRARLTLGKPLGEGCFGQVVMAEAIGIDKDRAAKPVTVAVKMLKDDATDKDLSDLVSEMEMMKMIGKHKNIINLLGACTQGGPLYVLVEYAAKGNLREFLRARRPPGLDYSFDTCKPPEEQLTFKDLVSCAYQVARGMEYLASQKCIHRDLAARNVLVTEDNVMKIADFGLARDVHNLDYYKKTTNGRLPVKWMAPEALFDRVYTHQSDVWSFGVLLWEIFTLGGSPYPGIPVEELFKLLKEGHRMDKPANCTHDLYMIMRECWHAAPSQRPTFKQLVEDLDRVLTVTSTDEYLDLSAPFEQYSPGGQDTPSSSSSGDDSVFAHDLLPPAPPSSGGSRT

c-Abl (mouse) = test: as above
MERTK = MERTK (UniProt Q12866); test: as above
Chain of MERTK (Q12866 whole entry, looked up): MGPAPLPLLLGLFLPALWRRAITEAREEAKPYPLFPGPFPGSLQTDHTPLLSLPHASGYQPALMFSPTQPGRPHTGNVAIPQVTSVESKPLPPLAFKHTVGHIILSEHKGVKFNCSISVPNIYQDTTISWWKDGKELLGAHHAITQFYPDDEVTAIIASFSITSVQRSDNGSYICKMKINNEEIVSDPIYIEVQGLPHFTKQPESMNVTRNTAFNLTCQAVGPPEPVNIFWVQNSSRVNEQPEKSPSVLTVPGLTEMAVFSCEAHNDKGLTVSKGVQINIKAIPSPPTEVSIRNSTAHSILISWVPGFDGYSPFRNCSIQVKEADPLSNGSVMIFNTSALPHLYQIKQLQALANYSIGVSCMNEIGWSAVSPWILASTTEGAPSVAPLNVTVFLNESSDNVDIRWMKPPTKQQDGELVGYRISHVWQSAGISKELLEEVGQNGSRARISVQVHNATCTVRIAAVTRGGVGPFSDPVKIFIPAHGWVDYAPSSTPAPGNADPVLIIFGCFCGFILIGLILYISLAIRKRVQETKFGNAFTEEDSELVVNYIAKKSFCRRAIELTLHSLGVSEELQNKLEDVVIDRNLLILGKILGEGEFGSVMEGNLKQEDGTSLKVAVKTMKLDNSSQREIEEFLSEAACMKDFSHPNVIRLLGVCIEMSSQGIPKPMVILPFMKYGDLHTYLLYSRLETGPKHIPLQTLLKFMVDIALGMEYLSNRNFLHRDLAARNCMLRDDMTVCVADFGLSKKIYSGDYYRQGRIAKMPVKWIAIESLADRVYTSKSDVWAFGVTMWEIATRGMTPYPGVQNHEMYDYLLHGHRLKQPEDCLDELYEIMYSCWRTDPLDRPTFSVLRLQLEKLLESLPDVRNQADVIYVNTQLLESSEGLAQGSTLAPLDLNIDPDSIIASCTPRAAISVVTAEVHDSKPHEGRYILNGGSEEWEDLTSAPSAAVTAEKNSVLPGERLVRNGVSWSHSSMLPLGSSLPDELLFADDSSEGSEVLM

Fer (mouse) = test: as above
EPHB1 = EPHB1 (UniProt P54762); test: as above
Jak2 = Jak2 (UniProt O60674); test: as above
Chain of Jak2 (O60674 whole entry, looked up): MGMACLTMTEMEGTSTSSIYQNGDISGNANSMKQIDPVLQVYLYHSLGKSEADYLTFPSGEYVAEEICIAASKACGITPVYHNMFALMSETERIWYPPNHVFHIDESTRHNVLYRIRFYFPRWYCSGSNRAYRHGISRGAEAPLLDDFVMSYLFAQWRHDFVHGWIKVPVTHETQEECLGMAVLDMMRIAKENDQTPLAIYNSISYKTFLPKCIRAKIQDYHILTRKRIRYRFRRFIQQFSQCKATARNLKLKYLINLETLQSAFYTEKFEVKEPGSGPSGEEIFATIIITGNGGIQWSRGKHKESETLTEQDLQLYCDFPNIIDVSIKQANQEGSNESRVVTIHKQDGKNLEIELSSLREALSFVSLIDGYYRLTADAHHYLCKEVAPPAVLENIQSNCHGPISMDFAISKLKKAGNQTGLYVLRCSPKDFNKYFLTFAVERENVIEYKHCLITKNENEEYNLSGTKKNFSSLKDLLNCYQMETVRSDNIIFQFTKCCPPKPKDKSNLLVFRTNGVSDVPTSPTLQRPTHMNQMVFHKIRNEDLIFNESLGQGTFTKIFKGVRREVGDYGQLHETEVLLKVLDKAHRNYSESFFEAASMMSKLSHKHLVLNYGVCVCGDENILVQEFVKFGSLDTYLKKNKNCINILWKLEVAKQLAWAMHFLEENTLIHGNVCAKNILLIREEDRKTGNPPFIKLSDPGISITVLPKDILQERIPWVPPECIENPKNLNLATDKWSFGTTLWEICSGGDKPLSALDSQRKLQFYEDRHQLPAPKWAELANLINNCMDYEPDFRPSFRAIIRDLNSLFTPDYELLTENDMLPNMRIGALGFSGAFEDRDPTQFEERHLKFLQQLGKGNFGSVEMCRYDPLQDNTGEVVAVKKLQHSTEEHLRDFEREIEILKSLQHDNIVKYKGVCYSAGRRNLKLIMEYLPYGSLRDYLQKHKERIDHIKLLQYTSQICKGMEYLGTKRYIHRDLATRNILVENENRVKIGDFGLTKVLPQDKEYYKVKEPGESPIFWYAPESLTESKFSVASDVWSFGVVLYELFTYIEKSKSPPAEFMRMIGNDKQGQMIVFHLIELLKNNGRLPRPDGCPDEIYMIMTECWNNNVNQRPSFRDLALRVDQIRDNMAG

Hck = Hck (UniProt P08631); test: as above
Chain of Hck (P08631 whole entry, looked up): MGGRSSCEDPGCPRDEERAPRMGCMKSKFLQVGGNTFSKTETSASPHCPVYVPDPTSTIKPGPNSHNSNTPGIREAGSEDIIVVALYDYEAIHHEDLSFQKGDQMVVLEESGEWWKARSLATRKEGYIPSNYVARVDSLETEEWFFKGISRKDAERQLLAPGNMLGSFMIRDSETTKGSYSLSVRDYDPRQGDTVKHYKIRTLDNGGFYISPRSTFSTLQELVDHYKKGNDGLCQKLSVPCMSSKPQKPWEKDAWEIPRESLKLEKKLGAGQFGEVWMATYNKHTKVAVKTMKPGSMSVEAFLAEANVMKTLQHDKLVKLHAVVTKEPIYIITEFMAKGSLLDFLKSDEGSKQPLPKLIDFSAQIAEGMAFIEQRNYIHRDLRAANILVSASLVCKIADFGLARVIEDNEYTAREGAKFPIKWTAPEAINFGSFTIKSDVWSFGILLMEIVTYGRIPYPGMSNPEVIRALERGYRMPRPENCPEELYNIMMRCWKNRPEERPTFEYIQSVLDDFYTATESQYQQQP

Fyn = Fyn (UniProt P06241); test: as above
Chain of Fyn (P06241 whole entry, looked up): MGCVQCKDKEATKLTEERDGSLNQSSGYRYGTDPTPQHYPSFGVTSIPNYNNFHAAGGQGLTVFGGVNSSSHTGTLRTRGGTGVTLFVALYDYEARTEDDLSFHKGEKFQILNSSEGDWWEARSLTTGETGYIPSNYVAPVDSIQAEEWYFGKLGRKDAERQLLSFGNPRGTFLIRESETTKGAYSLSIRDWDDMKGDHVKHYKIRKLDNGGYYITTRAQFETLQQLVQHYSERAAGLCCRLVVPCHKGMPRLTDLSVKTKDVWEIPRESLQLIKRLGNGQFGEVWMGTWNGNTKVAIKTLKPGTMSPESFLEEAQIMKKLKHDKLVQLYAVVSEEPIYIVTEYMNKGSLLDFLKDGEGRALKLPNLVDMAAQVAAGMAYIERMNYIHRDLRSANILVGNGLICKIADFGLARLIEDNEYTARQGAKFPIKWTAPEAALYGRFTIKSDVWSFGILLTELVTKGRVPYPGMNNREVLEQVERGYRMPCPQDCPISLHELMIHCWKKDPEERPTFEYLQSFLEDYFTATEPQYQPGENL

Fes = Fes (UniProt P07332); test: as above
Chain of Fes (P07332 whole entry, looked up): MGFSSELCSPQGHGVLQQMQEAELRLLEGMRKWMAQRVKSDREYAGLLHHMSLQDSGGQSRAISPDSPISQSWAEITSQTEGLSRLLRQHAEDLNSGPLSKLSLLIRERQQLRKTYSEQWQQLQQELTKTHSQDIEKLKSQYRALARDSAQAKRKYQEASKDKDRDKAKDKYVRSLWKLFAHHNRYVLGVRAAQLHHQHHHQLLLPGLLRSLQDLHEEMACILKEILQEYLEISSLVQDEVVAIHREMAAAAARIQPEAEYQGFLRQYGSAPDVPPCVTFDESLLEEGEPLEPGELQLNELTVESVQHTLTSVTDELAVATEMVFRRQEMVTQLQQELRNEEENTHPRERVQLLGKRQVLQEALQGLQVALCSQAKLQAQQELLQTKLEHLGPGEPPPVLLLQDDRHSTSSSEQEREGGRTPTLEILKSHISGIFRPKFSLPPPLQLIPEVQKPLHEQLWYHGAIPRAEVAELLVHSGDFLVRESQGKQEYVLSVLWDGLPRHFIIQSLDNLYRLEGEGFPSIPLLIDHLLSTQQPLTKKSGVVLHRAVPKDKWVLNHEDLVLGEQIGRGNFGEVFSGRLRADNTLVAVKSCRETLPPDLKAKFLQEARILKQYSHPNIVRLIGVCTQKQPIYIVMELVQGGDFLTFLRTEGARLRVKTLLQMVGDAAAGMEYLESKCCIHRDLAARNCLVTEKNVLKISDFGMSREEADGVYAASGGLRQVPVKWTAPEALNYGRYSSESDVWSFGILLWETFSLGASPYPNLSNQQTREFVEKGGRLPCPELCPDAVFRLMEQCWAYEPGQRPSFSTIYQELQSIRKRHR

SHP2-C SH2 = test: SH2 binding enrichment of the phosphorylated peptide, bacterial display (enrichment ratio); higher = better substrate or ligand; peptides without Tyr show the background
c-Src SH2 = test: as above
Grb2 SH2 = Grb2 SH2 (UniProt P62993); test: as above
Chain of Grb2 SH2 (P62993 whole entry, looked up, the tested form may be a part): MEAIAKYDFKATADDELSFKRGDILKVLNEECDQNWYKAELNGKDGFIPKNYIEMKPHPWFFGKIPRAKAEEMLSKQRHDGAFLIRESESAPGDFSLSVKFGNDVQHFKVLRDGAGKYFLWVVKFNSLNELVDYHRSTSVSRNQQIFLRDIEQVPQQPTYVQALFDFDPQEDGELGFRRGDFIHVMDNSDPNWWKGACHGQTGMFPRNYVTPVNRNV
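Wherever SH2 binding enrichment of the phosphorylated peptide, bacterial display is given: peptide library displayed on the E. coli surface as eCPX fusions, selected cells deep-sequenced, score is each peptide's frequency after selection divided by its frequency in the input.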
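Wherever phosphorylation enrichment, bacterial display is given: 11-residue human phosphosite peptides and single-mutation variants displayed on the E. coli surface, counted by deep sequencing, each peptide's frequency after selection divided by its frequency in the unselected input library; frequency after pTyr selection over input frequency; kinase dosed for 20-30% of maximal phosphorylation in three min.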

| Sequence | phosphorylation enrichment (AncSZ) | phosphorylation enrichment (EPHB2) | phosphorylation enrichment (FGFR1) | phosphorylation enrichment (c-Src) | phosphorylation enrichment (FGFR3) | phosphorylation enrichment (c-Abl (mouse)) | phosphorylation enrichment (MERTK) | phosphorylation enrichment (Fer (mouse)) | phosphorylation enrichment (EPHB1) | phosphorylation enrichment (Jak2) | phosphorylation enrichment (Hck) | phosphorylation enrichment (Fyn) | phosphorylation enrichment (Fes) | SH2 binding enrichment (SHP2-C SH2) | SH2 binding enrichment (c-Src SH2) | SH2 binding enrichment (Grb2 SH2) |
| --- | --- | --- | --- | --- | --- | --- | --- | --- | --- | --- | --- | --- | --- | --- | --- | --- |
| MSSLYYANALF [HOXB7_Y6_T9A] | 1.04 | 8.29 | 5.32 | 4.88 | 4.83 | 3.44 | 10.7 | 5.14 | 7.33 | 2.94 | 6.04 | 4.93 | 1.04 | 1.36 | 2.08 | 4.61 |
| QTPVLYTMLDH [MPZ_Y220_A221T] | 0.896 | 1.78 | 2.85 | 3 | 3.51 | 0.674 | 13.4 | 10.7 | 4.45 | 0.907 | 5.48 | 2.02 | 1.14 | 11.8 | 3.44 | 0.866 |
| RNIQQCNSFVS [PRKAR1A_Y373_Y373C] | 1.28 | 0.634 | 0.501 | 0.707 | 0.662 | 0.922 | 0.66 | 0.773 | 0.718 | 1.4 | 0.711 | 0.506 | 1.18 | 0.8 | 0.572 | 0.82 |
| TVLGEYALPKG [CYP24A1_Y407] | 1.15 | 0.542 | 0.45 | 0.39 | 0.562 | 6.83 | 0.585 | 0.404 | 0.58 | 0.592 | 0.565 | 0.491 | 0.621 | 0.429 | 0.572 | 0.707 |
| KDGNGYISVAE [CALM3_Y100_A103V] | 0.771 | 0.485 | 0.404 | 0.598 | 0.473 | 0.679 | 0.418 | 0.442 | 0.362 | 0.671 | 0.462 | 0.407 | 0.859 | 0.746 | 2.5 | 0.685 |
| SGKSEYLLPVA [MYLK_Y611_R607G] | 1.08 | 0.424 | 0.456 | 0.453 | 0.554 | 1.17 | 0.397 | 0.45 | 0.486 | 0.721 | 0.362 | 0.453 | 0.89 | 0.465 | 0.383 | 0.801 |
| TFQFKYPEGSS [TGM4_Y440_E437Q_YF] | 0.841 | 0.478 | 0.521 | 0.427 | 0.722 | 0.564 | 0.44 | 0.363 | 0.496 | 0.69 | 0.491 | 0.529 | 0.943 | 0.896 | 0.568 | 0.955 |
| ILTFKYLQIPM [KIT_Y547_K550I_YF] | 1.07 | 0.649 | 0.442 | 0.344 | 0.663 | 0.637 | 0.371 | 0.521 | 0.586 | 1.02 | 0.453 | 0.468 | 1.16 | 1.67 | 1.17 | 1.69 |
| GLVFLYVEKNQ [PRELP_Y156_M157V] | 1.22 | 0.622 | 0.44 | 0.479 | 0.902 | 0.759 | 0.337 | 0.575 | 0.6 | 1.15 | 0.532 | 0.505 | 1.29 | 1.19 | 0.663 | 1.12 |
| PKGIRYGQGAG [CSRP3_Y73_G72R] | 0.532 | 0.375 | 0.339 | 0.585 | 0.453 | 0.927 | 0.9 | 0.349 | 0.502 | 0.521 | 0.587 | 0.411 | 0.504 | 0.867 | 0.484 | 0.984 |
| TNDMRYPMKSE [TGDS_Y302] | 0.675 | 0.46 | 0.486 | 0.424 | 0.523 | 0.557 | 0.469 | 0.359 | 0.345 | 0.579 | 0.438 | 0.445 | 0.672 | 0.697 | 0.548 | 0.861 |
| YKGKNYKPLDL [RPL35_Y78_K77N] | 0.423 | 0.246 | 0.32 | 0.391 | 0.362 | 0.575 | 0.333 | 0.267 | 0.277 | 0.59 | 0.276 | 0.334 | 0.697 | 0.846 | 0.516 | 0.9 |
| VKPRRYRPGTV [H3-5_Y41_H39R] | 0.622 | 0.51 | 0.53 | 0.608 | 0.466 | 0.512 | 0.577 | 0.463 | 0.56 | 0.588 | 0.5 | 0.58 | 0.542 | 0.514 | 0.576 | 0.835 |
| CSTIHYNYMCN [TP53_Y234_T230S] | 0.784 | 0.542 | 0.545 | 0.435 | 0.585 | 0.411 | 0.375 | 0.555 | 0.586 | 0.656 | 0.399 | 0.461 | 0.758 | 3.83 | 6.46 | 1.11 |
| FARECYSALPQ [SARS2_Y52_G51C_YF] | 1.66 | 0.603 | 1.17 | 0.702 | 1.06 | 0.726 | 1.18 | 0.982 | 0.55 | 0.761 | 2.93 | 0.671 | 1.01 | 0.759 | 0.5 | 0.762 |
| VVQGIYGYHHY [UFSP2_Y285] | 0.923 | 8.76 | 0.662 | 8.86 | 0.575 | 7.67 | 11.3 | 16.7 | 3.24 | 0.683 | 10.5 | 11.8 | 1.04 | 1.11 | 0.829 | 1.12 |
| GADDSYYTARS [ZAP70_Y492] | 1 | 0.517 | 0.551 | 0.742 | 0.652 | 0.938 | 0.43 | 0.482 | 0.488 | 1 | 0.737 | 0.594 | 1.05 | 0.447 | 0.556 | 0.816 |

| Sequence | phosphorylation enrichment (AncSZ) | phosphorylation enrichment (EPHB2) | phosphorylation enrichment (FGFR1) | phosphorylation enrichment (c-Src) | phosphorylation enrichment (FGFR3) | phosphorylation enrichment (c-Abl (mouse)) | phosphorylation enrichment (MERTK) | phosphorylation enrichment (Fer (mouse)) | phosphorylation enrichment (EPHB1) | phosphorylation enrichment (Jak2) | phosphorylation enrichment (Hck) | phosphorylation enrichment (Fyn) | phosphorylation enrichment (Fes) | SH2 binding enrichment (SHP2-C SH2) | SH2 binding enrichment (c-Src SH2) | SH2 binding enrichment (Grb2 SH2) |
| --- | --- | --- | --- | --- | --- | --- | --- | --- | --- | --- | --- | --- | --- | --- | --- | --- |
| TPGPNYCPGFN [USH2A_Y463_R464C_YF] | 0.334 | 0.254 | 0.515 | 0.944 | 0.35 | 0.643 | 0.507 | 0.557 | 0.499 | 0.662 | 0.333 | 0.578 | 0.643 | 0.645 | 0.632 | 0.987 |
| ISKKRYAGLLF [POLD1_Y809] | 0.539 | 0.471 | 0.57 | 0.462 | 0.467 | 0.52 | 0.466 | 0.307 | 0.415 | 0.658 | 0.519 | 0.448 | 0.507 | 0.653 | 0.449 | 0.695 |
| RLLVVYPWTQK [HBG1_Y36_R41K] | 0.842 | 0.529 | 0.473 | 0.388 | 0.69 | 0.617 | 0.32 | 0.468 | 0.581 | 0.63 | 0.547 | 0.508 | 0.926 | 2.19 | 1.76 | 2.31 |
| VDASFYGGRGV [ANTXR2_Y381_YF] | 0.561 | 0.338 | 0.32 | 0.391 | 0.463 | 0.443 | 0.377 | 0.336 | 0.396 | 0.574 | 0.91 | 0.447 | 0.632 | 0.576 | 0.5 | 0.721 |
| LEFAKYGSLRG [RET_Y809_V804L_YF] | 0.567 | 0.792 | 0.316 | 0.43 | 0.459 | 0.454 | 0.388 | 0.373 | 0.37 | 0.593 | 0.567 | 0.398 | 0.644 | 0.73 | 0.505 | 0.907 |
| KMKGEYFRFLA [YWHAG_Y130_D129E_YF] | 0.791 | 0.567 | 3.77 | 2.76 | 2.58 | 1.4 | 0.598 | 0.7 | 0.678 | 2.04 | 0.783 | 1.75 | 0.93 | 1.3 | 1.24 | 1.63 |
| QRRLVYFERGA [RYR1_Y245_G248R_YF] | 0.847 | 0.79 | 0.918 | 0.569 | 0.742 | 0.805 | 0.484 | 0.586 | 0.665 | 0.811 | 0.507 | 0.584 | 0.827 | 0.578 | 0.65 | 0.942 |
| TLSGIYQFSIA [FOXL2_Y81_I84S_YF] | 1.31 | 1.05 | 0.852 | 5.19 | 0.952 | 1.27 | 6 | 6.02 | 1.63 | 0.919 | 3.82 | 5.53 | 1.04 | 0.836 | 0.533 | 1 |
| FMCKVYSDRQP [FGFR1_Y280_P283R] | 1.52 | 0.577 | 0.494 | 0.634 | 0.808 | 0.879 | 0.463 | 0.587 | 0.577 | 1.35 | 0.582 | 0.544 | 1.54 | 0.666 | 0.527 | 0.771 |
| FKPENYRRLDI [VHL_Y175_V170F] | 0.599 | 0.425 | 0.414 | 0.312 | 0.544 | 0.63 | 0.41 | 0.376 | 0.367 | 0.747 | 0.383 | 0.32 | 0.738 | 0.923 | 0.402 | 0.892 |
| KKCTRYIDCDL [ASPA_Y64] | 0.798 | 0.434 | 0.623 | 0.429 | 0.575 | 0.757 | 0.421 | 0.423 | 0.428 | 0.782 | 0.41 | 0.389 | 0.852 | 0.83 | 0.875 | 0.932 |
| RCKSHYAAFSV [C1QTNF1_Y145] | 1.41 | 0.903 | 1.1 | 1.07 | 0.983 | 4.74 | 2.89 | 1.46 | 1.43 | 0.737 | 1.42 | 1.4 | 1.35 | 1.73 | 1.34 | 1.45 |
| QRALLYEDTLF [UNC13D_Y56_A59T_YF] | 1.58 | 13.9 | 0.599 | 1.95 | 0.853 | 1.13 | 9.24 | 17.9 | 15.4 | 1.68 | 1.65 | 1.49 | 4.74 | 0.82 | 0.547 | 0.739 |
| RLLVVYTWTQR [HBB_Y36_P37T] | 1.81 | 1.12 | 0.661 | 0.509 | 0.941 | 0.862 | 0.694 | 0.842 | 0.656 | 1.08 | 0.915 | 0.739 | 2.12 | 1.55 | 1.01 | 1.68 |
| STTIHYNFMCN [TP53_Y234_C229S_YF] | 1 | 0.605 | 0.523 | 0.463 | 0.797 | 0.753 | 0.5 | 0.494 | 0.628 | 0.998 | 0.504 | 0.493 | 1.19 | 0.902 | 0.64 | 0.788 |
| KRIETYFSKNY [PLP1_Y50_L46R] | 0.658 | 0.365 | 0.436 | 0.384 | 0.504 | 0.532 | 0.392 | 0.377 | 0.427 | 0.661 | 0.484 | 0.374 | 0.748 | 0.71 | 0.502 | 0.787 |
